# Test results from patent US20100323957A1 (University of California, published 2010).
# Biological target: wild-type EGFR kinase domain (residues 672-998 of human EGFR) with N-terminal 6-His tag, linker and TEV site (human, UniProt P00533 672-998)
# Experiment: cell-based or functional assay
binder,measurement,value
SYLNGVMPPTQSFAPDPKYVSSKAL [25-residue MIG6 peptide (residues 340-364)],"IC50, inhibition of activated EGFR kinase",~100 µM
